Data as given in patent US20150337049A1 (Genmab, published 2015).

B1: IgG1-HER2 (IgG1-HER2-169-K409R), wild-type Fc (antibody)
heavy: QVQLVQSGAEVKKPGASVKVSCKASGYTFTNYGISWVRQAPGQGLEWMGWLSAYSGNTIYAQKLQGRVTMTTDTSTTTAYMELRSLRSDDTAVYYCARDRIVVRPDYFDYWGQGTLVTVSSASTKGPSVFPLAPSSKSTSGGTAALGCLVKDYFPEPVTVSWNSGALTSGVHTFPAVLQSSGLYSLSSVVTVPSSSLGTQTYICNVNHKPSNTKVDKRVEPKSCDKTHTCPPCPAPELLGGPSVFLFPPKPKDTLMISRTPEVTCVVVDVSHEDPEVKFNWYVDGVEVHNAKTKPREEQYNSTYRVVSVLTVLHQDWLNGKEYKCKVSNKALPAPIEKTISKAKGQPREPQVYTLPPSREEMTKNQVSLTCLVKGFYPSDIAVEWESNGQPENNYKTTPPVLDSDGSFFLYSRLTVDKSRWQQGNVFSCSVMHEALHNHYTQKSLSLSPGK
VL: EIVLTQSPATLSLSPGERATLSCRASQSVSSYLAWYQQKPGQAPRLLIYDASNRATGIPARFSGSGSGTDFTLTISSLEPEDFAVYYCQQRSNWPRTFGQGTKVEIK
B2: IgG1-HER2-LFLE (IgG1-HER2-169-K409R with L234F/L235E) (antibody)
heavy: QVQLVQSGAEVKKPGASVKVSCKASGYTFTNYGISWVRQAPGQGLEWMGWLSAYSGNTIYAQKLQGRVTMTTDTSTTTAYMELRSLRSDDTAVYYCARDRIVVRPDYFDYWGQGTLVTVSSASTKGPSVFPLAPSSKSTSGGTAALGCLVKDYFPEPVTVSWNSGALTSGVHTFPAVLQSSGLYSLSSVVTVPSSSLGTQTYICNVNHKPSNTKVDKRVEPKSCDKTHTCPPCPAPEFEGGPSVFLFPPKPKDTLMISRTPEVTCVVVDVSHEDPEVKFNWYVDGVEVHNAKTKPREEQYNSTYRVVSVLTVLHQDWLNGKEYKCKVSNKALPAPIEKTISKAKGQPREPQVYTLPPSREEMTKNQVSLTCLVKGFYPSDIAVEWESNGQPENNYKTTPPVLDSDGSFFLYSRLTVDKSRWQQGNVFSCSVMHEALHNHYTQKSLSLSPGK
VL: EIVLTQSPATLSLSPGERATLSCRASQSVSSYLAWYQQKPGQAPRLLIYDASNRATGIPARFSGSGSGTDFTLTISSLEPEDFAVYYCQQRSNWPRTFGQGTKVEIK
notes: IgG1, K409R
B3: IgG1-HER2-N297Q (IgG1-HER2-169-K409R with N297Q) (antibody)
heavy: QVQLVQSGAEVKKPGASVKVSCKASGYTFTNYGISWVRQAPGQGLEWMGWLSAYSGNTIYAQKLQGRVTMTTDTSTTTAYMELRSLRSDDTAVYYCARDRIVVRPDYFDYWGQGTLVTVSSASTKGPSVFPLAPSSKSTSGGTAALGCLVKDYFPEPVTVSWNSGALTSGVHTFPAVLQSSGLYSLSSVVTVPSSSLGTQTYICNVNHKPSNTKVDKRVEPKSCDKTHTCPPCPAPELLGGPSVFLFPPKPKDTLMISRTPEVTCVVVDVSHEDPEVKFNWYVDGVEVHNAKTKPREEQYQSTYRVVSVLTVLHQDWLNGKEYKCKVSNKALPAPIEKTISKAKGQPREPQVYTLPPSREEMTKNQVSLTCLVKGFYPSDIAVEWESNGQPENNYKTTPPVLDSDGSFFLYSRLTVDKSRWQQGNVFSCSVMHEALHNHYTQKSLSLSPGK
VL: EIVLTQSPATLSLSPGERATLSCRASQSVSSYLAWYQQKPGQAPRLLIYDASNRATGIPARFSGSGSGTDFTLTISSLEPEDFAVYYCQQRSNWPRTFGQGTKVEIK
notes: IgG1, K409R; also called NQ
B4: IgG1-HER2-… (IgG1-HER2-169-K409R with L234F/L235E/D265A/N297Q/P331S) (antibody)
heavy: QVQLVQSGAEVKKPGASVKVSCKASGYTFTNYGISWVRQAPGQGLEWMGWLSAYSGNTIYAQKLQGRVTMTTDTSTTTAYMELRSLRSDDTAVYYCARDRIVVRPDYFDYWGQGTLVTVSSASTKGPSVFPLAPSSKSTSGGTAALGCLVKDYFPEPVTVSWNSGALTSGVHTFPAVLQSSGLYSLSSVVTVPSSSLGTQTYICNVNHKPSNTKVDKRVEPKSCDKTHTCPPCPAPEFEGGPSVFLFPPKPKDTLMISRTPEVTCVVVAVSHEDPEVKFNWYVDGVEVHNAKTKPREEQYQSTYRVVSVLTVLHQDWLNGKEYKCKVSNKALPASIEKTISKAKGQPREPQVYTLPPSREEMTKNQVSLTCLVKGFYPSDIAVEWESNGQPENNYKTTPPVLDSDGSFFLYSRLTVDKSRWQQGNVFSCSVMHEALHNHYTQKSLSLSPGK
VL: EIVLTQSPATLSLSPGERATLSCRASQSVSSYLAWYQQKPGQAPRLLIYDASNRATGIPARFSGSGSGTDFTLTISSLEPEDFAVYYCQQRSNWPRTFGQGTKVEIK
notes: IgG1, K409R
B5: IgG1-HER2-DANQ (IgG1-HER2-169-K409R with D265A/N297Q) (antibody)
heavy: QVQLVQSGAEVKKPGASVKVSCKASGYTFTNYGISWVRQAPGQGLEWMGWLSAYSGNTIYAQKLQGRVTMTTDTSTTTAYMELRSLRSDDTAVYYCARDRIVVRPDYFDYWGQGTLVTVSSASTKGPSVFPLAPSSKSTSGGTAALGCLVKDYFPEPVTVSWNSGALTSGVHTFPAVLQSSGLYSLSSVVTVPSSSLGTQTYICNVNHKPSNTKVDKRVEPKSCDKTHTCPPCPAPELLGGPSVFLFPPKPKDTLMISRTPEVTCVVVAVSHEDPEVKFNWYVDGVEVHNAKTKPREEQYQSTYRVVSVLTVLHQDWLNGKEYKCKVSNKALPAPIEKTISKAKGQPREPQVYTLPPSREEMTKNQVSLTCLVKGFYPSDIAVEWESNGQPENNYKTTPPVLDSDGSFFLYSRLTVDKSRWQQGNVFSCSVMHEALHNHYTQKSLSLSPGK
VL: EIVLTQSPATLSLSPGERATLSCRASQSVSSYLAWYQQKPGQAPRLLIYDASNRATGIPARFSGSGSGTDFTLTISSLEPEDFAVYYCQQRSNWPRTFGQGTKVEIK
notes: IgG1, K409R
B6: IgG1-HER2-LALA (IgG1-HER2-169-K409R with L234A/L235A) (antibody)
heavy: QVQLVQSGAEVKKPGASVKVSCKASGYTFTNYGISWVRQAPGQGLEWMGWLSAYSGNTIYAQKLQGRVTMTTDTSTTTAYMELRSLRSDDTAVYYCARDRIVVRPDYFDYWGQGTLVTVSSASTKGPSVFPLAPSSKSTSGGTAALGCLVKDYFPEPVTVSWNSGALTSGVHTFPAVLQSSGLYSLSSVVTVPSSSLGTQTYICNVNHKPSNTKVDKRVEPKSCDKTHTCPPCPAPEAAGGPSVFLFPPKPKDTLMISRTPEVTCVVVDVSHEDPEVKFNWYVDGVEVHNAKTKPREEQYNSTYRVVSVLTVLHQDWLNGKEYKCKVSNKALPAPIEKTISKAKGQPREPQVYTLPPSREEMTKNQVSLTCLVKGFYPSDIAVEWESNGQPENNYKTTPPVLDSDGSFFLYSRLTVDKSRWQQGNVFSCSVMHEALHNHYTQKSLSLSPGK
VL: EIVLTQSPATLSLSPGERATLSCRASQSVSSYLAWYQQKPGQAPRLLIYDASNRATGIPARFSGSGSGTDFTLTISSLEPEDFAVYYCQQRSNWPRTFGQGTKVEIK
notes: IgG1, K409R
B7: IgG1-HER2-LFLEDA (IgG1-HER2-169-K409R with L234F/L235E/D265A) (antibody, name in EU numbering)
heavy: QVQLVQSGAEVKKPGASVKVSCKASGYTFTNYGISWVRQAPGQGLEWMGWLSAYSGNTIYAQKLQGRVTMTTDTSTTTAYMELRSLRSDDTAVYYCARDRIVVRPDYFDYWGQGTLVTVSSASTKGPSVFPLAPSSKSTSGGTAALGCLVKDYFPEPVTVSWNSGALTSGVHTFPAVLQSSGLYSLSSVVTVPSSSLGTQTYICNVNHKPSNTKVDKRVEPKSCDKTHTCPPCPAPEFEGGPSVFLFPPKPKDTLMISRTPEVTCVVVAVSHEDPEVKFNWYVDGVEVHNAKTKPREEQYNSTYRVVSVLTVLHQDWLNGKEYKCKVSNKALPAPIEKTISKAKGQPREPQVYTLPPSREEMTKNQVSLTCLVKGFYPSDIAVEWESNGQPENNYKTTPPVLDSDGSFFLYSRLTVDKSRWQQGNVFSCSVMHEALHNHYTQKSLSLSPGK
VL: EIVLTQSPATLSLSPGERATLSCRASQSVSSYLAWYQQKPGQAPRLLIYDASNRATGIPARFSGSGSGTDFTLTISSLEPEDFAVYYCQQRSNWPRTFGQGTKVEIK
notes: IgG1, K409R
B8: IgG1-HER2-LFLENQ (IgG1-HER2-169-K409R with L234F/L235E/N297Q) (antibody)
heavy: QVQLVQSGAEVKKPGASVKVSCKASGYTFTNYGISWVRQAPGQGLEWMGWLSAYSGNTIYAQKLQGRVTMTTDTSTTTAYMELRSLRSDDTAVYYCARDRIVVRPDYFDYWGQGTLVTVSSASTKGPSVFPLAPSSKSTSGGTAALGCLVKDYFPEPVTVSWNSGALTSGVHTFPAVLQSSGLYSLSSVVTVPSSSLGTQTYICNVNHKPSNTKVDKRVEPKSCDKTHTCPPCPAPEFEGGPSVFLFPPKPKDTLMISRTPEVTCVVVDVSHEDPEVKFNWYVDGVEVHNAKTKPREEQYQSTYRVVSVLTVLHQDWLNGKEYKCKVSNKALPAPIEKTISKAKGQPREPQVYTLPPSREEMTKNQVSLTCLVKGFYPSDIAVEWESNGQPENNYKTTPPVLDSDGSFFLYSRLTVDKSRWQQGNVFSCSVMHEALHNHYTQKSLSLSPGK
VL: EIVLTQSPATLSLSPGERATLSCRASQSVSSYLAWYQQKPGQAPRLLIYDASNRATGIPARFSGSGSGTDFTLTISSLEPEDFAVYYCQQRSNWPRTFGQGTKVEIK
notes: IgG1, K409R
B9: IgG1-HER2-DAPS (IgG1-HER2-169-K409R with D265A/P331S) (antibody)
heavy: QVQLVQSGAEVKKPGASVKVSCKASGYTFTNYGISWVRQAPGQGLEWMGWLSAYSGNTIYAQKLQGRVTMTTDTSTTTAYMELRSLRSDDTAVYYCARDRIVVRPDYFDYWGQGTLVTVSSASTKGPSVFPLAPSSKSTSGGTAALGCLVKDYFPEPVTVSWNSGALTSGVHTFPAVLQSSGLYSLSSVVTVPSSSLGTQTYICNVNHKPSNTKVDKRVEPKSCDKTHTCPPCPAPELLGGPSVFLFPPKPKDTLMISRTPEVTCVVVAVSHEDPEVKFNWYVDGVEVHNAKTKPREEQYNSTYRVVSVLTVLHQDWLNGKEYKCKVSNKALPASIEKTISKAKGQPREPQVYTLPPSREEMTKNQVSLTCLVKGFYPSDIAVEWESNGQPENNYKTTPPVLDSDGSFFLYSRLTVDKSRWQQGNVFSCSVMHEALHNHYTQKSLSLSPGK
VL: EIVLTQSPATLSLSPGERATLSCRASQSVSSYLAWYQQKPGQAPRLLIYDASNRATGIPARFSGSGSGTDFTLTISSLEPEDFAVYYCQQRSNWPRTFGQGTKVEIK
notes: IgG1, K409R
B10: IgG1-HER2-DA (IgG1-HER2-169-K409R with D265A) (antibody)
heavy: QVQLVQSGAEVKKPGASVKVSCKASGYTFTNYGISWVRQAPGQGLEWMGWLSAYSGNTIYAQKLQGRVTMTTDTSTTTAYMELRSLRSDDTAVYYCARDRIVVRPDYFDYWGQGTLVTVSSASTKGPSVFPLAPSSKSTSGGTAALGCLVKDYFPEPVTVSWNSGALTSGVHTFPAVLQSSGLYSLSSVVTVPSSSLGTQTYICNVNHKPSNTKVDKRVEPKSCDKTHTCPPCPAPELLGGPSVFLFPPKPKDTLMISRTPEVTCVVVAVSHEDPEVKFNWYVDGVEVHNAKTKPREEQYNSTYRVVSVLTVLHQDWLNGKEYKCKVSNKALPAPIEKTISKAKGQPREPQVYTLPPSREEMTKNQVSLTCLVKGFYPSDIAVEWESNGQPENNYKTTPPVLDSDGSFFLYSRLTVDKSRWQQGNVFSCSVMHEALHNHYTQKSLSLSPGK
VL: EIVLTQSPATLSLSPGERATLSCRASQSVSSYLAWYQQKPGQAPRLLIYDASNRATGIPARFSGSGSGTDFTLTISSLEPEDFAVYYCQQRSNWPRTFGQGTKVEIK
notes: IgG1, K409R
B11: IgG1-HER2-LFLEPS (IgG1-HER2-169-K409R with L234F/L235E/P331S) (antibody)
heavy: QVQLVQSGAEVKKPGASVKVSCKASGYTFTNYGISWVRQAPGQGLEWMGWLSAYSGNTIYAQKLQGRVTMTTDTSTTTAYMELRSLRSDDTAVYYCARDRIVVRPDYFDYWGQGTLVTVSSASTKGPSVFPLAPSSKSTSGGTAALGCLVKDYFPEPVTVSWNSGALTSGVHTFPAVLQSSGLYSLSSVVTVPSSSLGTQTYICNVNHKPSNTKVDKRVEPKSCDKTHTCPPCPAPEFEGGPSVFLFPPKPKDTLMISRTPEVTCVVVDVSHEDPEVKFNWYVDGVEVHNAKTKPREEQYNSTYRVVSVLTVLHQDWLNGKEYKCKVSNKALPASIEKTISKAKGQPREPQVYTLPPSREEMTKNQVSLTCLVKGFYPSDIAVEWESNGQPENNYKTTPPVLDSDGSFFLYSRLTVDKSRWQQGNVFSCSVMHEALHNHYTQKSLSLSPGK
VL: EIVLTQSPATLSLSPGERATLSCRASQSVSSYLAWYQQKPGQAPRLLIYDASNRATGIPARFSGSGSGTDFTLTISSLEPEDFAVYYCQQRSNWPRTFGQGTKVEIK
notes: IgG1, K409R

Molecular target: T1, HER2 on HER2-positive AU565 cells (human, UniProt P04626 23-1255)
T1 construct: whole, on cells
Test: FACS, AU565 cells
Protocol: Cells (1×10^5 cells/well) were incubated in polystyrene 96-well round-bottom plates (Greiner bio-one 650101) with serial dilutions of antibody preparations (range 2 to 10000 ng/mL in 4-fold dilutions for Jurkat cells and range 1 to 3000 ng/mL in 4-fold dilutions for on AU565 cells) in 100 μL PBS/0.1% BSA/0.02% azide at 4° C. for 30 min.
After washing twice in PBS/0.1% BSA/0.02% azide, cells were incubated in 100 μL with secondary antibody at 4° C. for 30 min. As a secondary antibody, R-Phycoerythrin (PE)-conjugated goat-anti-human IgG F(ab′)₂ (109-116-098, Jackson ImmunoResearch Laboratories, Inc., West Grove, Pa.) diluted 1/100 in PBS/0.1% BSA/0.02% azide, was used for all experiments. Next, cells were washed twice in PBS/0.1% BSA/0.02% azide, resuspended in 150 μL PBS/0.1% BSA/0.02% azide and analyzed on a FACS CantoII (BD Biosciences). Binding curves were analyzed using non-linear regression (sigmoidal dose-response with variable slope) using GraphPad Prism V5.04 software (GraphPad Software, San Diego, Calif., USA).

Binding result, binds:
B1
B2
B3
B4
B5
B6
B7
B8
B9
B10
B11
